Results reported in patent publication US20100254977A1.

B1: mouse mAb 17E6 (antibody, mouse IgG1, V domains shown)
VH: EPKSSDKTHTCPPCP
VL: WGQGTTVTVSS

What was measured:
[1] = biological target: human αv-integrins (human) (UniProt P06756); assay: cell-based or functional assay
[2] = biological target: human αv-integrins (human), P06756; assay: cell-based or functional assay
Chain of human αv-integrins (human), P06756 (P06756 31-1048): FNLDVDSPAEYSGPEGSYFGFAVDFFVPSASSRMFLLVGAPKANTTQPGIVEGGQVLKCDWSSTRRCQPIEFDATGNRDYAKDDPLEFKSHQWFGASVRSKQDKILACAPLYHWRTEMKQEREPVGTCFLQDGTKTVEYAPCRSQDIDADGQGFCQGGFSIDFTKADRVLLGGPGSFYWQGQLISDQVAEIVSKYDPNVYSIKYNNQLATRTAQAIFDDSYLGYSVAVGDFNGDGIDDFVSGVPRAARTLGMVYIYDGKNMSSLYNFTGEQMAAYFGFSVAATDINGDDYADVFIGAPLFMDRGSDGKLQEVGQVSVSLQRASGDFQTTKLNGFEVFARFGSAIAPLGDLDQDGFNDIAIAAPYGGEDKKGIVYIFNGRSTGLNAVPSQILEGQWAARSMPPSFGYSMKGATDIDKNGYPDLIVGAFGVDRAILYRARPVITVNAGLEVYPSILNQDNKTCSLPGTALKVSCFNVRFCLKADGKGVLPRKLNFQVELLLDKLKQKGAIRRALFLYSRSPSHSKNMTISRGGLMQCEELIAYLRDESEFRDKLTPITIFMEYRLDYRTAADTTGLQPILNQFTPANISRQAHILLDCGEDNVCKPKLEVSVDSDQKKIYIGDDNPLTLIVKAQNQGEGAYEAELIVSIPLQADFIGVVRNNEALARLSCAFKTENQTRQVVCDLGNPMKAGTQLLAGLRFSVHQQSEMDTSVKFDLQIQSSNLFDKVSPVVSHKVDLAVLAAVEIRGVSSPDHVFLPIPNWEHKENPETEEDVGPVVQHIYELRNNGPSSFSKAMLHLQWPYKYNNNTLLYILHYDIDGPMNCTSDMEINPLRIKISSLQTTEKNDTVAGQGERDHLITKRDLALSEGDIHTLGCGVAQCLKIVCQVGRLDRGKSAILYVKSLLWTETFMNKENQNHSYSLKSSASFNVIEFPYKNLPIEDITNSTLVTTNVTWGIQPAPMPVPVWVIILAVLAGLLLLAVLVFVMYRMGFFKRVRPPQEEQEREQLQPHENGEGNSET

Chain of human αv-integrins (human) (P06756 31-1048): as above

Molecule | EC50, blocking of VEGF-induced migration of human endothelial cells on vitronectin [1] [nM] | EC50, blocking of tumor cell adhesions [1] [nM] | EC50, inhibition of human endothelial cell adhesion to vitronectin [1] [nM] | IC50, growth of HUVEC on vitronectin (Alamar Blue) [1] [ng/mL] | IC50, growth of HUVEC on vitronectin (Alamar Blue) [2] [ng/mL]
DI-17E6 (antibody) | 50 | 0.1 to 50 | 10 | 4 | –
B1 | – | – | – | – | 5
